Experimental findings from US20110093983A1, “ALGAL GLYCEROL-3 PHOSPHATE ACYLTRANSFERASE” (National Research Council of Canada, priority 2008, published 2011) are described below.

This assay deals with yeast gat1 mutant. The assay can be described thus: Lipidomic analysis of phospholipids from yeast gat1 transformed with TpGPAT or GAT1, fed EPA or DHA. The assay is classed as cell-based, Saccharomyces cerevisiae. The note with it: tandem mass spectrometer lipidomics. From the text: FIG. 4 graphically depicts the results of the lipidomic analysis (fatty acid composition) of the lipids from yeast gat1 mutants transformed with either TpGPAT1 or GAT1. Yeast cells expressing TpGPAT or yeast GAT1 were fed with EPA (20:5) or DHA (22:6) upon induction of the genes. Total lipids from the yeast cells were extracted and subjected to lipidomic analysis using a tandem mass spectrometer. The results are presented as the molar ratio of EPA- or DHA-containing phospholipids (PC, PE, PS, PI) in the total phospholipids.
To further determine the role of TpGPAT in the incorporation of VLGPUFAs into glycerolipids, yeast gat1 strain transformed with TpGPAT or GAT1 under the control of the GAL1 promoter was grown in the presence of EPA (20:5) or DHA (22:6) upon induction of the genes. Phospholipids were extracted and subjected to lipidomic analysis using a tandem mass spectrometer (testing conducted by the Kansas Lipidomics Research Center). […] It was thus concluded that TpGPAT has a role in controlling PUFA accumulation in glycerolipid.

B1: GAT1: yeast (S. cerevisiae) glycerol-3-phosphate acyltransferase gene GAT1 expressed under GAL1 promoter as comparator (protein, listed as Saccharomyces cerevisiae)
chain: MSAPAADHNAAKPIPHVPQASRRYKNSYNGFVYNIHTWLYDVSVFLFNILFTIFFREIKVRGAYNVPEVGVPTILVCAPHANQFIDPALVMSQTRLLKTSAGKSRSRMPCFVTAESSFKKRFISFFGHAMGGIPVPRIQDNLKPVDENLEIYAPDLKNHPEIIKGRSKNPQTTPVNFTKRFSAKSLLGLPDYLSNAQIKEIPDDETIILSSPFRTSKSKVVELLTNGTNFKYAEKIDNTETFQSVFDHLHTKGCVGIFPEGGSHDRPSLLPIKAGVAIMALGAVAADPTMKVAVVPCGLHYFHRNKFRSRAVLEYGEPIVVDGKYGEMYKDSPRETVSKLLKKITNSLFSVTENAPDYDTLMVIQAARRLYQPVKVRLPLPAIVEINRRLLFGYSKFKDDPRIIHLKKLVYDYNRKLDSVGLKDHQVMQLKTTKLEALRCFVTLIVRLIKFSVFAILSLPGSILFTPIFIICRVYSEKKAKEGLKKSLVKIKGTDLLATWKLIVALILAPILYVTYSILLIILARKQHYCRIWVPSNNAFIQFVYFYALLVFTTYSSLKTGEIGVDLFKSLRPLFVSIVYPGKKIEEIQTTRKNLSLELTAVCNDLGPLVFPDYDKLATEIFSKRDGYDVSSDAESSISRMSVQSRSRSSSIHSIGSLASNALSRVNSRGSLTDIPIFSDAKQGQWKSEGETSEDEDEFDEKNPAIVQTARSSDLNKENSRNTNISSKIASLVRQKREHEKKE
As to B1, under “yeast gat1 fed DHA (22:6)”, the “Molar percentage of DHA in phospholipids” value was determined as 0.235%. For the same molecule, for the setting “yeast gat1 fed EPA (20:5)”, the “Molar percentage of EPA in phospholipids” value came to 2.025%.
